# Where no end group is shown, it is not given here.
# B1: Phage-2099 (peptide)
# peptide: LGNWCIPEWMCYGM
# modifications: cysteine pairing not given here; also: fused to phage pIII (clonal phage display)
# notes: Clonal phage of the Peptide-180 library
# Biological target: T1, Anti-PSMA Fab (SEQ ID NOs: 19, 20)
# T1 construct: Biotinylated and captured on neutravidin coated plates in the phage ELISA; also called 006 PSMA Fab
# Assay: phage binding ELISA; biotinylated anti-PSMA Fab on neutravidin plate, PSMA antigen as competitor, anti-M13 HRP detection
row,Binder,Anti-PSMA Fab signal in the presence of PSMA
1,SENWCIPSWMCQGF [Phage-2103],0.0813
2,EWKWCTPSWMCEDA [Phage-2105],0.0652
3,QEKWCIPMWMCESL [Phage-2106],0.0796
4,GEIWCIPRWMCESF [Phage-2115],0.0672
5,SAMLCKPQWMCDGF [Phage-2108],0.0821
6,VHNWCIPSWMCEGL [Phage-2107],0.0717
7,GVNWCIPDWMCVGM [Phage-2104],0.0692
8,MERWCIPEWMCATT [Phage-2102],0.0637
9,MNTWCKPAWMCEGL [Phage-2113],0.127
10,SERWCIPEWMCSMP [Phage-2114],0.0625
11,LENWCKPAWMCRGS [Phage-2109],0.0678
12,VVKWCSPPWMCDFL [Phage-2111],0.0713
13,WENWCTPSWMCSVL [Phage-2116],0.118
14,VDPLCRPAWMCFGM [Phage-2112],0.0801
15,FEKWCIPPWMCAVH [Phage-2110],0.138

# Biological target: T2, Anti-PSMA Fab (SEQ ID NOs: 19, 20)
# T2 construct: Biotinylated Fab captured on neutravidin coated plates in the phage ELISA; also called 006 PSMA Fab
# Assay: phage ELISA; PSMA Fab on plate pre-incubated with PSMA antigen as competitor, anti-M13 HRP
# Description: (§1) Clonal phage were harvested as crude supernatants and screened via standard ELISAs. […] Prior to the addition of clonal phage. wells were incubated with blocking buffer and PSMA antigen or blocking buffer alone. Without washing or aspirating, clonal phage supernatants were then added to the wells and incubated for a short time. Wells were then washed followed by detection of bound phage using a horse radish conjugated anti-M13 antibody.
row,Binder,"Phage binding ELISA, Anti-PSMA Fab signal in the presence of PSMA"
1,PLPWCIPVWMCSMI (Clonal phage of the peptide-180 library) [Phage-2129],0.161
2,EFKWCTPPWMCQWD (Clonal phage of the peptide-180 library) [Phage-2125],0.101
3,SDKWCIPPWMCEVA (Clonal phage of the peptide-180 library) [Phage-2126],0.0724
4,LMKWCIPDWMCSHV (Clonal phage of the peptide-180 library) [Phage-2131],0.0763
5,LVKWCTPPWMCESQ (Clonal phage of the peptide-180 library) [Phage-2130],0.0701
6,EMIWCRPAWMCEGI (Clonal phage of the peptide-180 library) [Phage-2118],0.0702
7,EIHLCKPPWMCDWL (Clonal phage of the peptide-180 library) [Phage-2120],0.109
8,YAKWCIPEWMCAVS (Clonal phage of the peptide-180 library) [Phage-2119],0.12
9,WDKWCIPEWMCVTQ (Clonal phage of the peptide-180 library) [Phage-2127],0.1
10,EIKWCRPGWMCKVR (Clonal phage of the peptide-180 library) [Phage-2123],0.0583
11,DGLLCRPLWMCQFL (Clonal phage of the peptide-180 library) [Phage-2128],0.0771
12,AEKWCIPPWMCEWV (Clonal phage of the peptide-180 library) [Phage-2121],0.105
13,EIKWCVPQWMCENQ (Clonal phage of the peptide-180 library) [Phage-2117],0.0643
14,VTAWCIPEWMCVGV (Clonal phage of the peptide-180 library) [Phage-2122],0.0929
15,ILKACIPDWMCEGS (Clonal phage of the peptide-180 library) [Phage-2124],0.0604

# Biological target: T3, Anti-PSMA Fab (SEQ ID NOs: 19, 20)
# T3 construct: also called 006 PSMA Fab
# Assay: phage ELISA; biotinylated PSMA Fab on neutravidin plate, clonal phage supernatant, anti-M13-HRP detection;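 further: wells were preincubated with blocking buffer containing PSMA antigen or with blocking buffer only, then phage supernatant was added without washing for a brief incubation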
# Description: as §1
row,Binder,"Phage binding ELISA, Anti-PSMA Fab (SEQ ID NOs: 19, 20) signal"
1,EGKWCIPEWMCSAS [Phage-2134],1.7
2,VLKWCIPTWMCETQ [Phage-2137],1.7
3,FEMLCTPPWMCVGL [Phage-2133],1.7
4,VYKWCTPPWMCTQM [Phage-2136],1.7
5,IPKWCTPVWMCEGM [Phage-2142],1.69
6,EHKWCIPSWMCADM [Phage-2140],1.69
7,LEKWCTPSWMCIGI [Phage-2139],1.7
8,VQKWCIPEWMCAVA [Phage-2138],1.7
9,EMKLCRPAWMCEYM [Phage-2141],1.69
10,TERWCVPAWMCTLV [Phage-2135],1.7
11,DANWCKPTWMCAGF [Phage-2132],1.7

# Biological target: T4, Anti-PSMA Fab (SEQ ID NOs: 19, 20)
# T4 construct: In the phage ELISA the Fab was biotinylated and captured on neutravidin coated plates; also called 006 PSMA Fab
# Assay: phage binding ELISA; biotinylated PSMA Fab captured on neutravidin plate, bound phage detected with anti-M13-HRP
# Description: as §1
row,Binder,"Anti-PSMA Fab (SEQ ID NOs: 19, 20) signal"
1,B1,1.73
2,EAKWCIPAWMCSGV (Clonal phage of the Peptide-180 library) [Phage-2101],1.73
3,INMWCIPAWMCQNT (Clonal phage of the Peptide-180 library) [Phage-2100],1.73

# Biological target: T4, Anti-PSMA Fab (SEQ ID NOs: 19, 20)
# Assay: phage binding ELISA on captured PSMA Fab, wells pre-incubated with PSMA antigen as competitor
# Description: as §1
row,Binder,Anti-PSMA Fab signal in the presence of PSMA
1,B1,0.078
2,EAKWCIPAWMCSGV (Clonal phage of the Peptide-180 library) [Phage-2101],0.0654
3,INMWCIPAWMCQNT (Clonal phage of the Peptide-180 library) [Phage-2100],0.128

# Biological target: T1, Anti-PSMA Fab (SEQ ID NOs: 19, 20)
# Assay: phage binding ELISA; biotinylated anti-PSMA Fab on neutravidin plate, clonal phage supernatant, anti-M13 HRP detection
# Description: as §1
row,Binder,"Anti-PSMA Fab (SEQ ID NOs: 19, 20) signal"
1,SENWCIPSWMCQGF [Phage-2103],1.73
2,EWKWCTPSWMCEDA [Phage-2105],1.73
3,QEKWCIPMWMCESL [Phage-2106],1.73
4,GEIWCIPRWMCESF [Phage-2115],1.72
5,SAMLCKPQWMCDGF [Phage-2108],1.72
6,VHNWCIPSWMCEGL [Phage-2107],1.73
7,GVNWCIPDWMCVGM [Phage-2104],1.73
8,MERWCIPEWMCATT [Phage-2102],1.73
9,MNTWCKPAWMCEGL [Phage-2113],1.72
10,SERWCIPEWMCSMP [Phage-2114],1.72
11,LENWCKPAWMCRGS [Phage-2109],1.72
12,VVKWCSPPWMCDFL [Phage-2111],1.72
13,WENWCTPSWMCSVL [Phage-2116],1.72
14,VDPLCRPAWMCFGM [Phage-2112],1.72
15,FEKWCIPPWMCAVH [Phage-2110],1.72

# Biological target: T3, Anti-PSMA Fab (SEQ ID NOs: 19, 20)
# Assay: phage ELISA; biotinylated PSMA Fab on neutravidin plate pre-incubated with PSMA antigen as competitor, anti-M13-HRP detection
# Description: as §1
row,Binder,"Phage binding ELISA, Anti-PSMA Fab signal in the presence of PSMA"
1,EGKWCIPEWMCSAS [Phage-2134],0.0777
2,VLKWCIPTWMCETQ [Phage-2137],0.0908
3,FEMLCTPPWMCVGL [Phage-2133],0.0639
4,VYKWCTPPWMCTQM [Phage-2136],0.0779
5,IPKWCTPVWMCEGM [Phage-2142],0.0647
6,EHKWCIPSWMCADM [Phage-2140],0.108
7,LEKWCTPSWMCIGI [Phage-2139],0.0773
8,VQKWCIPEWMCAVA [Phage-2138],0.0584
9,EMKLCRPAWMCEYM [Phage-2141],0.0727
10,TERWCVPAWMCTLV [Phage-2135],0.0741
11,DANWCKPTWMCAGF [Phage-2132],0.109

# Biological target: T2, Anti-PSMA Fab (SEQ ID NOs: 19, 20)
# Assay: phage ELISA; biotinylated PSMA Fab on neutravidin plate, bound phage detected with anti-M13 HRP
# Description: as §1
row,Binder,"Phage binding ELISA, Anti-PSMA Fab signal"
1,PLPWCIPVWMCSMI (Clonal phage of the peptide-180 library) [Phage-2129],1.71
2,EFKWCTPPWMCQWD (Clonal phage of the peptide-180 library) [Phage-2125],1.71
3,SDKWCIPPWMCEVA (Clonal phage of the peptide-180 library) [Phage-2126],1.71
4,LMKWCIPDWMCSHV (Clonal phage of the peptide-180 library) [Phage-2131],1.71
5,LVKWCTPPWMCESQ (Clonal phage of the peptide-180 library) [Phage-2130],1.71
6,EMIWCRPAWMCEGI (Clonal phage of the peptide-180 library) [Phage-2118],1.72
7,EIHLCKPPWMCDWL (Clonal phage of the peptide-180 library) [Phage-2120],1.72
8,YAKWCIPEWMCAVS (Clonal phage of the peptide-180 library) [Phage-2119],1.72
9,WDKWCIPEWMCVTQ (Clonal phage of the peptide-180 library) [Phage-2127],1.71
10,EIKWCRPGWMCKVR (Clonal phage of the peptide-180 library) [Phage-2123],1.71
11,DGLLCRPLWMCQFL (Clonal phage of the peptide-180 library) [Phage-2128],1.71
12,AEKWCIPPWMCEWV (Clonal phage of the peptide-180 library) [Phage-2121],1.71
13,EIKWCVPQWMCENQ (Clonal phage of the peptide-180 library) [Phage-2117],1.72
14,VTAWCIPEWMCVGV (Clonal phage of the peptide-180 library) [Phage-2122],1.71
15,ILKACIPDWMCEGS (Clonal phage of the peptide-180 library) [Phage-2124],1.71

# Source: patent US20260242478A1 (published 2026)
